Reference: patent US20130129725A1 (published 2013)
Where a chain is given by its changes, count along the chain named.

B1: 8F9 (antibody, V domains shown)
VH: QVQLVESGGGVVQPGRSLRLSCAASGFTFSSYGMHWVRQAPGKGLEWVAVIWYDGRNKYHADSVKGRFTISRDNSKNTLYLQMNSLRAEDTAVYYCARDHPVAGTSFDYWGQGTLVTVSS
VL: QSVLTQPPSVSAAPGQKVTISCSGSSSNIGNNYVSWYQQLPGTAPKLLIYDNNKRPSGIPDRFSGSKSGTSATLGITGLQTGDEADYYCGTWDSSLSAVVFGGGTKLTVLG
B2: 1A2 (antibody, V domains shown)
VH: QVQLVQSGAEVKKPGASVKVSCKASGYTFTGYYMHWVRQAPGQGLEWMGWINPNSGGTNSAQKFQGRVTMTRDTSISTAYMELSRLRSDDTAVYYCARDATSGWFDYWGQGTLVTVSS
VL: DIVMTQTPLSSPVTLGQPASISCRSSQSLVYSDGNTYLSWLQQRPGQPPRLLIYKISNRFSGVPDRFSGSGAGTDFTLKISRVEADDVGIYYCMQAIEFPWTFGQGTQVEIKR
B3: 1B5 (antibody, V domains shown)
VH: QVQLVQSGAEVKKPGASVKVSCKASGYTFTAYYMHWVRQAPGQGLEWMGWINPNSGGTNSAQKFQGRVTMTRDTSIRTAYMELSWLRSDDTAVYYCARDATSGWFDFWGQGTPVTVSS
VL: B2 VL with S10T, Y31H, S32Y, D86E, I97L, Q108K
B4: 3B4 (antibody, V domains shown)
VH: B3 VH with F107I
VL: B2 VL with Y31H, S32Y, D86E, I97L, Q108K
B5: 3F4 (antibody, V domains shown)
VH: B1 VH with T28I, S30R, W52S, R56S, H60Y
VL: B1 VL with K54N, G90E, V99G
B6: 9D10 (antibody, V domains shown)
VH: B1 VH with S30R, K58E, H60Y, Q82R
VL: B1 VL with K54R
B7: 10H3 (antibody, V domains shown)
VH: B3 VH with K12R, N54Y, R77S, P113L
VL: B2 VL with Y31H, S32Y, E84A, D86E, I97L, Q108K

Target: biotinylated hu-β-klotho (UniProt Q86Z14 53-996, biotinylated (sites not given))
Sequence (Q86Z14 53-996): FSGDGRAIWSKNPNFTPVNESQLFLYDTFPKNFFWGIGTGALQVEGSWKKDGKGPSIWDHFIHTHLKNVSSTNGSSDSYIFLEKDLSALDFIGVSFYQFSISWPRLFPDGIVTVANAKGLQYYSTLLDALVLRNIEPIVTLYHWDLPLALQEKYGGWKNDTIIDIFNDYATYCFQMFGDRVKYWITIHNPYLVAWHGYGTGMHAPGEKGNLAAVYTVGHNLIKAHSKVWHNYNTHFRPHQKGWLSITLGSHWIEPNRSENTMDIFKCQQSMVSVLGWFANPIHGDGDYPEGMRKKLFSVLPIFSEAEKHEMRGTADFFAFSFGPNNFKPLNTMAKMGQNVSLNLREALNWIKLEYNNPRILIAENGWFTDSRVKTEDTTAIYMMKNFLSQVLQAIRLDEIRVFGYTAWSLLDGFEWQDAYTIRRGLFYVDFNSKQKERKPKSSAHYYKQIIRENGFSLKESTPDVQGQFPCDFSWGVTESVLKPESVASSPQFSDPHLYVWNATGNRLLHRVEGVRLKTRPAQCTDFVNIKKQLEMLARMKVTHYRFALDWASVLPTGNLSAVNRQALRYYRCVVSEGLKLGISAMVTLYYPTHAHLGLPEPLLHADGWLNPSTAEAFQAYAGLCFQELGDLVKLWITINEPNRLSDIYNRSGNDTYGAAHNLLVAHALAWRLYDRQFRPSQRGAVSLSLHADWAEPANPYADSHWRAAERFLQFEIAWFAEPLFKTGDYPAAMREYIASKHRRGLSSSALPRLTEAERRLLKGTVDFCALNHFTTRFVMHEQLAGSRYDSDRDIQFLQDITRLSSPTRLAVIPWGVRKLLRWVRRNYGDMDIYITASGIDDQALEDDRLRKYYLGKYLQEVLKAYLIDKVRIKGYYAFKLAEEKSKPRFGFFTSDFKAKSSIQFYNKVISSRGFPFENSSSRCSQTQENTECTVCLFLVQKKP
Test: Octet BLI

Binder	Kd
B1	422 pM
B2	2140 pM
B3	578 pM
B4	6080 pM
B5	281 pM
B6	298 pM
B7	563 pM
